Experimental data taken from patent publication US20210340516A1, “COMPOSITIONS CONTAINING ARGINASE 1 FOR THE TREATMENT OF NEUROVASCULAR AND RETINAL VASCULAR DISORDERS” (Augusta University Research Institute, Inc., priority 2020, published 2021).

Legend:
Type in all cases: in vivo, mouse
[1] = Retinal ischemia-reperfusion (IR) injury: PEG-A1 penetration of the blood-retina barrier (anti-PEG Western blot, flat-mount immunolabeling)
Description: (§1) Mouse retinal ischemia-reperfusion (IR) injury and traumatic optic neuropathy (TON) models: All experiments were performed in accordance with the ARVO Statement for the Use of Animals in Ophthalmic and Vision Research and were approved by the institutional animal care and use committee (Animal Welfare Assurance no. D16-00197). Wild-type (WT) C57BL/6J mice (10-12 weeks old) were anesthetized using ketamine/xylazine mixture then subjected to retinal ischemia-reperfusion (IR) injury or optic nerve crush (ONC) to model traumatic optic neuropathy (TON) as described in Shosha, et al., Cell death & disease, 7:e2483-e (2016) and Xu, et al., Frontiers in Neuroscience, 12:970 (2018). Mice were sacrificed at 24 hours or 7 days after by deep anesthesia followed by trans-cardial perfusion with PBS or thoracotomy and eyeballs were collected and fixed in 4% PFA for immunolabeling or retinas were extracted without fixation and homogenized in Radioimmunoprecipitation Assay (RIPA) lysis buffer for Western blotting.
Western blotting: Western blotting on retina or brain was conducted as described in Fouda, A Y, et al., Cell death & Disease, 9:1001 (2018). Membranes were probed with anti-PEG (RevMAb Biosciences, 1:1000) and anti-albumin (Bethyl Laboratories, 1:5000). Uncropped blots are included in FIG. 22.
Fluorescent immunolabeling: Retinal flat-mounts were permeabilized and immunolabeled with anti-PEG antibody (RevMAb Biosciences, 1:400) and co-stained with Alex594-labeled Griffonia simplicifolia isolectin B4 (1:200; Invitrogen) as described in Shosha, et al., Cell death & disease, 7:e2483-e (2016).
Mice were deeply anesthetized and sacrificed 24 hours later by trans-cardial perfusion with PBS (FIG. 16A). […] These mice were sacrificed at day 7 without trans-cardial perfusion and retina flat-mounts were immunolabeled to show PEG distribution within the retina (FIG. 16D).
PEG-A1 treatment in acute retinal and brain injury mouse models: A pharmaceutical grade of PEG-A1 was provided as a kind gift from Bio-Cancer Treatment International Limited (BCT, Hong Kong). […] Methoxy polyethylene glycol propionic acid (MW 5,000—Sigma, Catalog number 88908-1G-F) was used as vehicle control.

[2] = Optic nerve crush (ONC) model: PEG-A1 penetration (Western blot, flat-mount immunolabeling); settings: Western blot at 24 hours, flat-mount immunolabeling at 7 days
Description: as §1
Western blotting: Western blotting on retina or brain was conducted as described in Fouda, A Y, et al., Cell death & Disease, 9:1001 (2018). Membranes were probed with anti-PEG (RevMAb Biosciences, 1:1000) and anti-albumin (Bethyl Laboratories, 1:5000). Uncropped blots are included in FIG. 22. […]

[3] = system: mice subjected to optic nerve crush (ONC); experiment: Optic nerve crush (ONC) model of traumatic optic neuropathy: neuroprotection by NeuN labeling; settings: 7 days post-ONC, treated at 3 hours and day 4; vehicle group 62%
Description: as §1, with “Mice were sacrificed at 24 hours or 7 days after by deep anesthesia followed by trans-cardial perfusion with PBS or thoracotomy and eyeballs were collected and fixed in 4% PFA for immunolabeling or retinas were extracted without fixation and homogenized in Radioimmunoprecipitation Assay (RIPA) lysis buffer for Western blotting.” left out
Evaluation of retinal neurodegeneration: Retina flat-mounts and explants were immunolabeled for the neuronal marker, NeuN (Millipore), as previously described in Shosha, et al., Cell death & disease, 7:e2483-e (2016). Images were collected and analyzed in a blinded fashion using a semi-automated method. […] NeuN-positive cells were quantified using ImageJ software ‘Batch processing’ function. […] The macro was validated every time it was used to make sure it is compatible with the set of images being analyzed. […]

[4] = 25 mg/kg i.p. at 3 hours after reperfusion, 24 hours, perfused
[5] = 25 mg/kg i.p. at 3 hours and day 4, day 7, no perfusion

B1: PEG-A1: recombinant human arginase (rhArg) covalently attached to methoxy polyethylene glycol (mPEG-SPA; MW 5,000) via succinamide propionic acid (SPA) linker (protein, UniProt P05089 1-322, looked up)
Arginase-1: MSAKSRTIGIIGAPFSKGQPRGGVEEGPTVLRKAGLLEKLKEQECDVKDYGDLPFADIPNDSPFQIVKNPRSVGKASEQLAGKVAEVKKNGRISLVLGGDHSLAIGSISGHARVHPDLGVIWVDAHTDINTPLTTTSGNLHGQPVSFLLKELKGKIPDVPGFSWVTPCISAKDIVYIGLRDVDPGEHYILKTLGIKYFSMTEVDRLGIGKVMEETLSYLLGRKKRPIHLSFDVDGLDPSFTPATGTPVVGGLTYREGLYITEEIYKTGLLSGLDIMEVNPSLGKTPEEVTRTVNTAVAITLACFGLAREGNHKPIDYLNPPK
modifications: mPEG-SPA 5 kDa conjugate
notes: recombinant human arginase (rhArg) covalently attached to methoxy polyethylene glycol (mPEG-SPA; MW 5,000) via succinamide propionic acid (SPA) linker
anti-PEG immunoreactivity in liver homogenates (Western blot) [1, 4]: strong band | anti-PEG reactivity in retina homogenates, IR-injured retinas [1, 4]: strong anti-PEG reactivity | anti-PEG reactivity in retina homogenates, sham eyes [1, 4]: faint anti-PEG reactive bands | PEG distribution within the retina (flat-mount immunolabeling), IR-injured retinas [1, 5]: more diffuse signal | PEG distribution within the retina (flat-mount immunolabeling), sham retinas [1, 5]: restricted to a vessel-like network | penetration into brain or sham contralateral retina/optic nerve after ONC [2]: not into the brain or sham contralateral retina/optic nerve | penetration into retina/optic nerve tissue after ONC [2]: effective penetration | neuroprotection after ONC (NeuN labeling and quantification) [3]: 78%
